# Assay results from patent US20240150447A1.
# Biological target: human FcRn protein (human) (UniProt P55899)
# Assay: SPR, Ab on Protein L chip, hFcRn in flow, pH 7.4
Substance,Kd [nM],koff [s⁻¹],kon [M⁻¹ s⁻¹]
"hIgG1 M252Y/N286E/V308P/M428I/N434Y, O4 VH with Ab6 light chain (antibody)",1030,1.03,1e+06
"hIgG1 M252Y/S254T/T256E/V308P, O4 VH with Ab6 light chain (antibody)",975,1.96,2.01e+06
"hIgG1 M252Y/S254T/V308P, O4 VH with Ab6 light chain (antibody)",76700,1.13,14700
"hIgG1 M252Y/N434Y/Y436V, O4 VH with Ab6 light chain (antibody)",25700,1.14,44300

# Other lines, results leading:
Kd [nM],koff [s⁻¹],kon [M⁻¹ s⁻¹],Substance
51.8,0.00221,42600,"hIgG1 M252Y/V308P, O4 VH with Ab6 light chain (antibody)"
239,,,"hIgG1 M252Y/T256K/V308P/N434W, O4 VH with Ab6 light chain (antibody)"
122,0.00101,8320,"hIgG1 M252Y/S254T/T256E/V308P/N434W, O4 VH with Ab6 light chain (antibody)"

# Biological target: human FcRn protein (human) (UniProt P55899)
# Assay: SPR, Ab on Protein L chip, hFcRn in flow, pH 6.0
Substance,Kd [nM],koff [s⁻¹],kon [M⁻¹ s⁻¹]
"hIgG1 M252Y/N286E/V308P/M428I/N434Y, O4 VH with Ab6 light chain (antibody)",0.109,0.000201,1.84e+06
"hIgG1 M252Y/S254T/T256E/V308P, O4 VH with Ab6 light chain (antibody)",21.5,0.0139,648000
"hIgG1 M252Y/S254T/V308P, O4 VH with Ab6 light chain (antibody)",31.7,0.0177,557000
"hIgG1 M252Y/N434Y/Y436V, O4 VH with Ab6 light chain (antibody)",5.48,0.00756,1.38e+06

# The remaining lines, values ahead:
Kd [nM],koff [s⁻¹],kon [M⁻¹ s⁻¹],Substance
37.4,0.0279,745000,"hIgG1 M252Y/V308P, O4 VH with Ab6 light chain (antibody)"
1.31,0.00143,,"hIgG1 M252Y/T256K/V308P/N434W, O4 VH with Ab6 light chain (antibody)"
0.471,0.000795,1.69e+06,"hIgG1 M252Y/S254T/T256E/V308P/N434W, O4 VH with Ab6 light chain (antibody)"

# Biological target: human FcRn and human B2M (beta-2-microglobulin) expressed on MDCK II cells (human) (UniProt P55899)
# Assay: cell-based or functional assay
row,Substance,Transcytosis Normalized to IAHA at pH 6.0 (ratio to IAHA)
1,anti-O4 hIgG1 M252Y/T256H/V308P/N434F (antibody),192
2,anti-O4 hIgG1 M252Y/T256E/V308P/N434F (antibody),182
3,anti-O4 hIgG1 M252Y/T256P/V308P/N434W (antibody),208
4,anti-O4 hIgG1 M252Y/T256W/V308P/N434W (antibody),147
5,anti-O4 hIgG1 M252Y/T256V/V308P/N434F (antibody),98.9
6,anti-O4 hIgG1 M252Y/V308P (antibody),281
7,anti-O4 hIgG1 M252Y/T256L/V308P/N434W (antibody),217
8,anti-O4 hIgG1 M252Y/T256L/V308P/N434Y (antibody),303
9,anti-O4 hIgG1 M252Y/T256I/V308P/N434Y (antibody),126
10,anti-O4 hIgG1 M252Y/T256Q/V308P/N434Y (antibody),286
11,anti-O4 hIgG1 M252Y/T256R/V308P/N434Y (antibody),655
12,anti-O4 hIgG1 M252Y/T256R/V308P/N434W (antibody),162
13,anti-O4 hIgG1 WT (wild type Fc) (antibody),122
14,anti-O4 hIgG1 M252Y/T256Q/V308P/N434W (antibody),156
15,anti-O4 hIgG1 M252Y/T256P/V308P/N434Y (antibody),132
16,anti-O4 hIgG1 M252Y/T256V/V308P/N434Y (antibody),183
17,anti-O4 hIgG1 M252Y/T256S/V308P/N434W (antibody),159
18,anti-O4 hIgG1 M252Y/T256E/V308P/N434H (antibody),155
19,anti-O4 hIgG1 M252Y/T256G/V308P/N434Y (antibody),130
20,anti-O4 hIgG1 M252Y/T256S/V308P/N434Y (antibody),156

# Results, then the substance that gave them:
row,Transcytosis Normalized to IAHA at pH 6.0 (ratio to IAHA),Substance
1,8.35,anti-O4 hIgG1 M252Y/T256Y/V308P/N434Y (antibody)
2,193,anti-O4 hIgG1 M252Y/T256A/V308P/N434Y (antibody)
3,154,anti-O4 hIgG1 M252Y/T256E/V308P/N434W (antibody)
4,193,anti-O4 hIgG1 M252Y/T256F/V308P/N434Y (antibody)
5,174,anti-O4 hIgG1 M252Y/T256N/V308P/N434Y (antibody)
6,153,anti-O4 hIgG1 M252Y/T256D/V308P/N434W (antibody)
7,588,anti-O4 hIgG1 M252Y/T256W/V308P/N434Y (antibody)
8,209,anti-O4 hIgG1 M252Y/T256V/V308P/N434W (antibody)
9,60.4,anti-O4 hIgG1 M252Y/T256F/V308P/N434F (antibody)
10,124,anti-O4 hIgG1 M252Y/T256E/V308P/N434Y (antibody)
11,190,anti-O4 hIgG1 M252Y/T256A/V308P/N434W (antibody)
